Data from patent publication US20210253718A1 (MODMAB THERAPEUTICS, published 2021).
Positions count from the first letter of the chain named.

T1: FZD8 cysteine-rich domain (CRD), MYC-tagged and GPI-anchored on CHO cells (human, UniProt Q498S8 31-155 (rat entry), GPI anchor)
T1 construct: also called FZD8 CRD; CHO-myc-FZDGPI; not shown: MYC tag and GPI anchor signal
T1 sequence: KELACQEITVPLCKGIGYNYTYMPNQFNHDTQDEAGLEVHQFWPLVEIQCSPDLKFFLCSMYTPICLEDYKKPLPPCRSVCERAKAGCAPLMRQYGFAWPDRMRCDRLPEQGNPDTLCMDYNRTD

T2: FZD9 cysteine-rich domain (CRD), MYC-tagged and GPI-anchored on CHO cells (human, UniProt O00144 35-161, GPI anchor)
T2 construct: also called FZD9 CRD; CHO-myc-FZDGPI; not shown: MYC tag and GPI anchor signal
T2 sequence: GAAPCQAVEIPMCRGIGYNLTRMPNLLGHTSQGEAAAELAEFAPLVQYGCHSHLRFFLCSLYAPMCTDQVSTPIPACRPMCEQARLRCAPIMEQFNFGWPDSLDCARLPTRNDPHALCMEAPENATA

T3: FZD4 cysteine-rich domain (CRD), MYC-tagged and GPI-anchored on CHO cells (human, UniProt Q9ULV1 42-167, GPI anchor)
T3 construct: also called FZD4 CRD; CHO-myc-FZDGPI; not shown: MYC tag and GPI anchor signal
T3 sequence: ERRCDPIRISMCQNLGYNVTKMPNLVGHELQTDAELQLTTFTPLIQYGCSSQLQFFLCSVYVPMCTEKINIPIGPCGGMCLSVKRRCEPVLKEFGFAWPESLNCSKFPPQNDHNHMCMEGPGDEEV

T4: FZD5 cysteine-rich domain (CRD), MYC-tagged and GPI-anchored on CHO cells (human, UniProt Q13467 29-156, GPI anchor)
T4 construct: also called FZD5 CRD; CHO-myc-FZDGPI; not shown: MYC tag and GPI anchor signal
T4 sequence: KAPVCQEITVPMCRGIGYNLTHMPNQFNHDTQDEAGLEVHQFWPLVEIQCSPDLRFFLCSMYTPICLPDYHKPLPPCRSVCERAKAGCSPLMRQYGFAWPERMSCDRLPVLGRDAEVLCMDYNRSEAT

T5: FZD3 cysteine-rich domain (CRD), MYC-tagged and GPI-anchored on CHO cells (human, UniProt Q9NPG1 24-150, GPI anchor)
T5 construct: domain: cysteine-rich domain (CRD); also called FZD3 CRD; CHO-myc-FZDGPI; not shown: MYC tag and GPI anchor signal
T5 sequence (looked up): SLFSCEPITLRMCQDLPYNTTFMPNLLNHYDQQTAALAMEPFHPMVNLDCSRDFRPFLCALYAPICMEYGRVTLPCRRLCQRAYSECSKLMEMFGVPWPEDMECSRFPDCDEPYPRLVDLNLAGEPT

T6: FZD6 cysteine-rich domain (CRD), MYC-tagged and GPI-anchored on CHO cells (human, UniProt O60353 20-146, GPI anchor)
T6 construct: also called FZD6 CRD; CHO-myc-FZDGPI; not shown: MYC tag and GPI anchor signal
T6 sequence: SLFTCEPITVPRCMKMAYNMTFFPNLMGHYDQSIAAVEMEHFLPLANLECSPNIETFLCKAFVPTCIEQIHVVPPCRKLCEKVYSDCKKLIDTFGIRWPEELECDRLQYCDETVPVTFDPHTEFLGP

T7: FZD10 cysteine-rich domain (CRD), MYC-tagged and GPI-anchored on CHO cells (human, UniProt Q9ULW2 30-156, GPI anchor)
T7 construct: also called FZD10 CRD; CHO-myc-FZDGPI; not shown: MYC tag and GPI anchor signal
T7 sequence: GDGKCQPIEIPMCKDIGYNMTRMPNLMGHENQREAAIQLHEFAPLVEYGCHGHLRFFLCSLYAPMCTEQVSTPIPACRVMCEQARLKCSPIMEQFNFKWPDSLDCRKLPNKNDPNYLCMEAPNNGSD

T8: recombinant human FZD5-Fc chimera (R&D Systems, Catalog no. 1617-FZ) (human, UniProt Q13467 27-167)
T8 construct: used for selection and ELISA; Fc part of the bought chimera not given
T8 sequence: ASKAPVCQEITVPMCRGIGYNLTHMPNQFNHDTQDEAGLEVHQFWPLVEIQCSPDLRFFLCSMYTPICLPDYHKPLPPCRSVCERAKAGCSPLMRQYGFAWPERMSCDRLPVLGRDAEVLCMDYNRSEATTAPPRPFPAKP

T9: FZD8-Fc (UniProt Q9H461 28-158, limits assumed)
T9 construct: extracellular domain; also called Frizzled-Fc chimera (FZD8); not shown: Fc part
T9 sequence (looked up): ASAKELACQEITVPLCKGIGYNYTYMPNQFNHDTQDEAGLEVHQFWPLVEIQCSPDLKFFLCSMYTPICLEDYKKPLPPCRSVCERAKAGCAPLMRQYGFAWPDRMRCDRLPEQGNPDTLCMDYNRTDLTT

B1: Fab-2914 (Fab, V domains shown)
VH: EVQLVESGGGLVQPGGSLRLSCAASGFNIYYSYMHWVRQAPGKGLEWVASIYPSSSSTSYADSVKGRFTISADTSKNTAYLQMNSLRAEDTAVYYCARGAMDYWGQGTLVTVSS
VL: DIQMTQSPSSLSASVGDRVTITCRASQSVSSAVAWYQQKPGKAPKLLIYSASSLYSGVPSRFSGSRSGTDFTLTISSLQPEDFATYYCQQWYYGSLITFGQGTKVEIK
notes: Fab; also called Fv-2914
B2: Fab-2898 (Fab, V domains shown)
VH: EVQLVESGGGLVQPGGSLRLSCAASGFNIYSYSMHWVRQAPGKGLEWVASIYSSSGSTSYADSVKGRFTISADTSKNTAYLQMNSLRAEDTAVYYCARAVWGLDYWGQGTLVTVSS
VL: DIQMTQSPSSLSASVGDRVTITCRASQSVSSAVAWYQQKPGKAPKLLIYSASSLYSGVPSRFSGSRSGTDFTLTISSLQPEDFATYYCQQWWGYYSLITFGQGTKVEIK
notes: Fab; also called Fv-2898
B3: Fab-2916 (Fab, V domains shown)
VH: EVQLVESGGGLVQPGGSLRLSCAASGFNISYSSIHWVRQAPGKGLEWVASIYPSYSYTYYADSVKGRFTISADTSKNTAYLQMNSLRAEDTAVYYCARYGYYGMDYWGQGTLVTVSS
VL: B2 VL with W92Y, G93H, Y95P, S96Y
notes: Fab
B4: Fab-2913 (Fab, V domains shown)
VH: B3 VH with S54Y, Y55S, Y57S, Y59S, M104L
VL: B2 VL with W92G, G93V, Y94S, Y95H, S96Y, I98F
notes: Fab; also called Fv-2913
B5: Fab-2927 (Fab, V domains shown)
VH: B3 VH with S30Y, I34M, S56G, Y59S, M104F
VL: B2 VL with W92G, G93S, Y94H, Y95G, S96Y
notes: Fab; also called Fv-2927
B6: IgG-2921 (antibody, V domains shown)
VH: B1 VH with Y30S, S32Y, M34I, S56G
VL: B1 VL with Y93A
B7: IgG-2910 (antibody, V domains shown)
VH: B1 VH with Y30S, P53S
VL: B1 VL with Y93G, G94S, S95H
B8: IgG-2920 (antibody, V domains shown)
VH: B1 VH with Y30S, S32Y, M34I, S56G, A100G
VL: B1 VL with Y92F, Y93A, S95A

Key:
[1] = molecular target: T1, FZD8 cysteine-rich domain (CRD), …; experiment: flow cytometry, CHO-CRD cells;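 further: flow cytometry of Fab binding to CHO cells overexpressing a Frizzled CRD, with binding defined as median fluorescence over twice that of CHO cells lacking any Frizzled CRD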
Procedure: (§1) Binding was measured via flow cytometry analysis of CHO cells overexpressing CRD of FZD1, FZD2, FZD3, FZD4, FZD5, FZD6, FZD7, FZD8, FZD9 or FZD10. Median fluorescence values are shown.

[2] = molecular target: T2, FZD9 cysteine-rich domain (CRD), …; experiment: flow cytometry, CHO-CRD cells;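 further: flow cytometry of Fab binding to CHO cells overexpressing a Frizzled CRD, with binding defined as median fluorescence over twice that of CHO cells lacking any Frizzled CRD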
Procedure: as §1

[3] = molecular target: T3, FZD4 cysteine-rich domain (CRD), …; experiment: flow cytometry, CHO-CRD cells;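 further: flow cytometry of Fab binding to CHO cells overexpressing a Frizzled CRD, with binding defined as median fluorescence over twice that of CHO cells lacking any Frizzled CRD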
Procedure: as §1

[4] = molecular target: FZD7 cysteine-rich domain (CRD), MYC-tagged and GPI-anchored on CHO cells (human, UniProt O75084 45-169); experiment: flow cytometry, CHO-CRD cells;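 further: flow cytometry of Fab binding to CHO cells overexpressing a Frizzled CRD, with binding defined as median fluorescence over twice that of CHO cells lacking any Frizzled CRD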
Procedure: as §1

[5] = molecular target: T4, FZD5 cysteine-rich domain (CRD), …; experiment: flow cytometry, CHO-CRD cells
Procedure: as §1

[6] = molecular target: T5, FZD3 cysteine-rich domain (CRD), …; experiment: flow cytometry, CHO-CRD cells
Procedure: as §1

[7] = molecular target: T6, FZD6 cysteine-rich domain (CRD), …; experiment: flow cytometry, CHO-CRD cells
Procedure: as §1

[8] = molecular target: T7, FZD10 cysteine-rich domain (CRD), …; experiment: flow cytometry, CHO-CRD cells
Procedure: as §1

[9] = molecular target: FZD1 cysteine-rich domain (CRD), MYC-tagged and GPI-anchored on CHO cells (human); experiment: flow cytometry, CHO-CRD cells
Procedure: as §1

[10] = molecular target: FZD2 cysteine-rich domain (CRD), MYC-tagged and GPI-anchored on CHO cells (human, UniProt Q14332 35-161); experiment: flow cytometry, CHO-CRD cells
Procedure: as §1

[11] = molecular target: T2, FZD9 cysteine-rich domain (CRD), …; experiment: immunofluorescence, CHO-CRD cells
[12] = molecular target: T3, FZD4 cysteine-rich domain (CRD), …; experiment: immunofluorescence, CHO-CRD cells
[13] = molecular target: T5, FZD3 cysteine-rich domain (CRD), …; experiment: immunofluorescence, CHO-CRD cells
[14] = molecular target: T6, FZD6 cysteine-rich domain (CRD), …; experiment: immunofluorescence, CHO-CRD cells
[15] = molecular target: T7, FZD10 cysteine-rich domain (CRD), …; experiment: immunofluorescence, CHO-CRD cells
[16] = molecular target: T8, recombinant human FZD5-Fc chimera (R&D …); experiment: SPR, Frizzled-Fc chimera;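 further: binding targets are Fc fusions carrying an extracellular Frizzled fragment that contains the CRD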
Procedure: (§2) Analysis was performed using Frizzled-Fc chimera binding targets, in which the Frizzled segment consists of an extracellular portion of Frizzled which includes the CRD. Legend: Kₐ, association constant; Kd, dissociation constant; KD, equilibrium dissociation constant.

[17] = molecular target: T9, FZD8-Fc; experiment: SPR, Frizzled-Fc chimera;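 further: binding targets are Fc fusions carrying an extracellular Frizzled fragment that contains the CRD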
Procedure: as §2

Binder | median fluorescence [1] | median fluorescence [2] | median fluorescence [3] | median fluorescence [4] | median fluorescence [5] | median fluorescence [6] | median fluorescence [7] | median fluorescence [8] | median fluorescence [9] | median fluorescence [10] | binding result [11] | binding result [12] | binding result [13] | binding result [14] | binding result [15] | Kd [16] [nM] | koff [16] [s⁻¹] | kon [16] [M⁻¹ s⁻¹] | Kd [17] [nM] | koff [17] [s⁻¹] | other results
B1 | 8.9 | 3.82 | 5.52 | 18.4 | 31.9 | 4.61 | 3.59 | 3.72 | 40.3 | 18.9 | no binding | no binding | no binding | no binding | no binding |  |  |  |  |  | 
B2 | 12.7 | 4.57 | 6.26 | 36.9 | 32 | 5.05 | 4.49 | 4.26 | 14.9 | 13.5 | no binding | no binding | no binding | no binding | no binding |  |  |  |  |  | 
B3 | 7.37 | 3.52 | 6.1 | 36.2 | 24.1 | 4.53 | 3.49 | 2.94 | 34.3 | 18.9 | no binding | no binding | no binding | no binding | no binding |  |  |  |  |  | 
B4 |  | 3.79 | 5.57 | 34.9 | 27.1 | 4.61 | 3.82 | 3.75 | 17.5 | 14.1 | no binding | no binding | no binding | no binding | no binding |  |  |  |  |  | 
B5 | 10.3 | 3.85 | 5.94 | 16.7 | 28.3 | 4.45 | 3.05 | 3.31 | 18.7 | 17.9 | no binding | no binding | no binding | no binding | no binding |  |  |  |  |  | 
B6 |  |  |  |  |  |  |  |  |  |  |  |  |  |  |  | 0.106 | 9.81e-05 | 922000 | 0.0244 | 2.71e-05 | kon [17]: 1.11e+06 M⁻¹ s⁻¹
B7 |  |  |  |  |  |  |  |  |  |  |  |  |  |  |  | 0.115 | 0.000174 | 1.52e+06 | 0.0427 | 2.28e-05 | kon [17]: 533000 M⁻¹ s⁻¹
B8 |  |  |  |  |  |  |  |  |  |  |  |  |  |  |  | 0.0883 | 0.000317 | 3.59e+06 | 0.056 | 0.000238 | kon [17]: 4.25e+06 M⁻¹ s⁻¹
